Tests used:
SlAAAD = target: T1, SlAAAD (Solanum lycopersicum, UniProt Q1KSC6); experiment: HPLC-EC decarboxylation assay; type: biochemical; details: 5 mM substrate, 20 mM HEPES pH 7.5, 25°C, 10 min
T1 construct: gene AADC1A; recombinant from bacterial expression plasmid pTYB12 (IMPACT-CN)
T1 sequence (Q1KSC6 1-471): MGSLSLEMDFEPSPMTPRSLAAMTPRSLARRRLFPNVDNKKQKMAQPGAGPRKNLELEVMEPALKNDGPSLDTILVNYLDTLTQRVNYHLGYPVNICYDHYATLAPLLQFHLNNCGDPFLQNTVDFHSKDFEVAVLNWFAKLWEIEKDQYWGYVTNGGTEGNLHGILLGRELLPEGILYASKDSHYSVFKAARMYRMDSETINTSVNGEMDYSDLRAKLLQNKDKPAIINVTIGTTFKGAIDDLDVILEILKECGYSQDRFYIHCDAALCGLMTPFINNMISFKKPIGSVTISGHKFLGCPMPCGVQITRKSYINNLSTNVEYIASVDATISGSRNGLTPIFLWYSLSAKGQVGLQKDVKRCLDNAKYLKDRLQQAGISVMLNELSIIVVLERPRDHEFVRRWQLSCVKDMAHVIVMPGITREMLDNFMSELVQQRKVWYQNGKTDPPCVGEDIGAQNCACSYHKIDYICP

AtSDC = target: T2, AtSDC (Arabidopsis thaliana, UniProt Q9MA74); experiment: HPLC-EC decarboxylation assay; type: biochemical; details: 5 mM substrate, 20 mM HEPES pH 7.5, 25°C, 10 min
T2 construct: gene SDC; recombinant from bacterial expression plasmid pTYB12 (IMPACT-CN)
T2 sequence (Q9MA74 1-482): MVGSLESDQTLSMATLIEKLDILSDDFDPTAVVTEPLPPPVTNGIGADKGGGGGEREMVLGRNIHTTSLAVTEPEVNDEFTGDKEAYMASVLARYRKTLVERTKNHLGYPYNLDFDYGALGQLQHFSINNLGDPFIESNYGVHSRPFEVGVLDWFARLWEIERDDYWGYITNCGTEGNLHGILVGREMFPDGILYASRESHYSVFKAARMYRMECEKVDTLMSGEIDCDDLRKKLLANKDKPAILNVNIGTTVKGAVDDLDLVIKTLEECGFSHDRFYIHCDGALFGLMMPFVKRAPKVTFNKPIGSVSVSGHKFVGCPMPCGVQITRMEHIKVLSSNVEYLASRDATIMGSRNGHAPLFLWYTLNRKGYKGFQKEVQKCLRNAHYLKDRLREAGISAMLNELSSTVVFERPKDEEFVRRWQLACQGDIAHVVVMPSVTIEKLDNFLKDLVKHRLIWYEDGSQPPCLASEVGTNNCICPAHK

purified protein = substrate: CC(C)C[C@H](N)C(=O)O; experiment: purified protein; details: 20 mM HEPES pH 7.5, 25°C, 5 min, hyperbolic regression
[1] = substrate: N[C@@H](Cc1ccccc1)C(=O)O; experiment: peroxide assay (Pierce Quantitative Peroxide Assay Kit); type: biochemical, Cicer arietinum; details: 20 mM HEPES pH 7.5, 25°C, 5 min, hyperbolic regression
From the text: (§1) peroxide assay (Pierce Quantitative Peroxide Assay Kit) on CaAAS

[2] = substrate: CSCC[C@H](N)C(=O)O; experiment: as above; type: biochemical, Cicer arietinum; details: 20 mM HEPES pH 7.5, 25°C, 5 min, hyperbolic regression
From the text: as §1

[3] = substrate: N[C@@H](Cc1c[nH]c2ccccc12)C(=O)O; experiment: as above; type: biochemical, Cicer arietinum; details: 20 mM HEPES pH 7.5, 25°C, 5 min, hyperbolic regression
From the text: as §1

[4] = substrate: N[C@@H](Cc1ccccc1)C(=O)O; experiment: as above; type: biochemical, Medicago truncatula; details: 20 mM HEPES pH 7.5, 25°C, 5 min, hyperbolic regression
From the text: (§2) peroxide assay (Pierce Quantitative Peroxide Assay Kit) on MtAAS

[5] = substrate: CSCC[C@H](N)C(=O)O; experiment: as above; type: biochemical, Medicago truncatula; details: 20 mM HEPES pH 7.5, 25°C, 5 min, hyperbolic regression
From the text: as §2

[6] = substrate: N[C@@H](Cc1c[nH]c2ccccc12)C(=O)O; experiment: as above; type: biochemical, Medicago truncatula; details: 20 mM HEPES pH 7.5, 25°C, 5 min, hyperbolic regression
From the text: as §2

N[C@@H](Cc1ccc(O)cc1)C(=O)O [tyrosine] was tested, and the HPLC-EC decarboxylation assay (SlAAAD) was “SlAAAD decarboxylation assay demonstrated activity towards tyrosine, dopa, phenylalanine and tryptophan”.

With N[C@@H](CO)C(=O)O [serine] the HPLC-EC decarboxylation assay (AtSDC) was “AtSDC only has activity towards serine”.

N[C@@H](Cc1ccccc1)C(=O)O [phenylalanine] was tested, and the HPLC-EC decarboxylation assay (SlAAAD) was “SlAAAD decarboxylation assay demonstrated activity towards tyrosine, dopa, phenylalanine and tryptophan”.

B1: CaAAS (Cicer arietinum) (protein)
chain: MGSLEGNNMLSMVVSNAKLAREEERQENINITNTNLTINQCIGETDANLKAIITHYVDTLTYSSLRNLGYPTNQDFNYDALASLFHFHLNNAGDPFVGSSFSLNSTKFEVGVLDWFAELWEIEKSDYWGYVTTGGTEGNLHGILVGREQFPDGILYTSQDSHYSIFKIARMYRMECVKVGSLLSGEIDCVELEASLLAHKDKPAIINLNIGTTMKGGIDDLDIVIQTLKKCGFTRDRFYIHCDGALFGIMLPFIKQAQRISFKKPIDSVTISGHKFLGCPSPCGVVITRLKYINELSRDVEIIASRDATITGSRCGHAPILLWYALKKKGLIGLKNEVHECIINARYLLDQLRDAGIGAMLNEFSNIVVFEKPLDDNFTRRWNLATKGNIAHVVVLMHVTKEMLDTFVREFIQKRSIWYKHGHFQPLCIANHVGSTNCVCSIHKLS
notes: recombinant from bacterial expression plasmid pTYB12 (IMPACT-CN)
B1 was tested, and the Km (purified protein) was 4600 ± 400 µM, the kcat (purified protein) was 0.467 s⁻¹ and the kcat/Km (purified protein) was 100 M⁻¹ s⁻¹. For the same molecule, the Km [1] was 90 ± 10 µM, the kcat [1] was 0.595 ± 0.009 s⁻¹ and the kcat/Km [1] was 6600 ± 650 M⁻¹ s⁻¹. For the same molecule, the Km [2] was 1620 ± 200 µM, the kcat [2] was 0.351 ± 0.012 s⁻¹ and the kcat/Km [2] was 220 ± 10 M⁻¹ s⁻¹. For the same molecule, the Km [3] was 2800 ± 700 µM, the kcat [3] was 0.187 ± 0.016 s⁻¹ and the kcat/Km [3] was 70 ± 100 M⁻¹ s⁻¹.

B2: MtAAS (Medicago truncatula) (protein)
chain: MAMTFIPDAELLPTVVVNAKLSREEKHDEENIIGLTNLDVTKSIGETDANLDAIIAHYAQTITKYNMRNLGYPTNQDFNYEALAPLLQFHLNNAGDPFLGSSFSLNSMAFEVSVLDWFAKLWEIEKNEYWGYVTTGGTEGNLHGILAGREQLPDGILYTSQDSHYSIAKIAKMYRMKCVKVDSLLSGEIDCVQLEASLLAHKDKPAIINLNIGTTLKGGIDDLDLVIQTLNKCGFTRDRFYIHCDGALFGIMLPFIKQAPRISFKKPIDSVTISGHKFLGCPSPCGVLITRLKYMNALSRDVDIIASRDATITGSRCGHAPIFLWYALKKRGLIGLENEVHECIMKAHYLLNLLRDAGIGAMLNKFSNIVVFERPLDDHFTRRWNLASNKNTAHVVVLKHVTVEMLDSFVREFTEKQSIWYKDEQFQPPCIANDVGSRNCACSIHNLSRNC
notes: as for B1
With B2 the Km (purified protein) was 7600 ± 700 µM, the kcat (purified protein) was 0.197 s⁻¹ and the kcat/Km (purified protein) was 30 M⁻¹ s⁻¹. For the same molecule, the Km [4] was 20 ± 10 µM, the kcat [4] was 0.358 ± 0.005 s⁻¹ and the kcat/Km [4] was 17900 ± 2290 M⁻¹ s⁻¹. The Km [5] was 1900 ± 200 µM, the kcat [5] was 0.144 ± 0.006 s⁻¹ and the kcat/Km [5] was 80 ± 10 M⁻¹ s⁻¹. It also gave a Km [6] of 1700 ± 300 µM, a kcat [6] of 0.125 ± 0.008 s⁻¹ and a kcat/Km [6] of 70 ± 10 M⁻¹ s⁻¹.
